Laboratory results as given in patent publication US20220017574A1 (Janssen / Centocor, published 2022).

Key:
Test in all cases: sandwich ELISA: antibody coated at 1 µg/ml, purified F protein titrated (after 4 weeks at 4 °C), detection with biotinylated CR9506
[1] = molecular target: T1, control pre-fusion F protein RSV150042 (respiratory syncytial virus subgroup A, UniProt P03420 27-109; P03420 137-513)
T1 construct: Control protein described in WO2017/174568; also called PRPM

[2] = molecular target: T2, pre-fusion RSV F protein RSV172527 (respiratory syncytial virus subgroup A …, UniProt P12568 27-109; P03420 137-513)
T2 construct: Soluble F ectodomain
T2 chain 1: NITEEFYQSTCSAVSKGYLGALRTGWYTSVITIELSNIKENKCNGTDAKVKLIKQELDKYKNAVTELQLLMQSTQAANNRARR
T2 chain 2: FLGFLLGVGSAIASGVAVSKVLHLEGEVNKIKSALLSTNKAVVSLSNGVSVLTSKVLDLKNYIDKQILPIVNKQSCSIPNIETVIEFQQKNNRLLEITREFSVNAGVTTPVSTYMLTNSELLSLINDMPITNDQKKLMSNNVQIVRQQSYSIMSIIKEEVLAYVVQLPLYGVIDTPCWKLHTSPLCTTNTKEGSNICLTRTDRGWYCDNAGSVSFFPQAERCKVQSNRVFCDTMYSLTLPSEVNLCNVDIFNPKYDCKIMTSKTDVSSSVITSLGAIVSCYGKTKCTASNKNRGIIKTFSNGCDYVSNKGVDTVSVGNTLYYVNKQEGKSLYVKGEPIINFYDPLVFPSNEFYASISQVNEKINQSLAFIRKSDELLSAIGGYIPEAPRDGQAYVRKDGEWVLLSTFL

[3] = molecular target: T3, pre-fusion RSV F protein RSV180305 (respiratory syncytial virus subgroup A …, UniProt P12568 27-109; P03420 137-513)
T3 construct: Soluble F ectodomain; also called RSV pre-F (RSV180305)

Measured: binding result

B1: monoclonal antibody CR9506 (antibody, human IgG1, kappa, V domains shown)
VH: EVQLVQSGAEVKKPGSSVKVSCKASGGTFSRSLITWVRQAPGQGLEWMGEISLVFGSAKNAQKFQGRVTITADESTSTAHMEMISLKHEDTAVYYCAAHQYGSGTHNNFWDESELRFDLWGQGTLVTVSS
VL: DIVMTQSPSSLSASVGDRVTIACRASQSIGTYLNWYQQKPGKAPKLLIYAASSLQSGVPSRFSGSGSGTHFTLAISSLQAEDFATYSCQQSYTIPYTFGQGTKLEIKR
notes: In the ELISA, CR9506 was coated as a capture antibody and also used biotinylated for detection; also called Mab CR9506
binds: all assays above
